Each block holds one substance with its values, some of them ahead of it.
How the values were obtained:
[1] = target: thermostabilized turkey beta-1 adrenergic receptor (turkey) (UniProt P07700); assay: cross-linking; Kd by titrating the G protein against the apo GPCR; 20 mM Hepes pH 7.5, 40 mM NaCl, 0.01% lauryl maltose neopentyl glycol; BS(PEG)9, high-mass MALDI-MS, normalised to β-galactosidase
[2] = target: angiotensin II-bound F117W mutant of mouse angiotensin II type 1 receptor (mouse | not stated) (UniProt P29754); assay: cross-linking; Kd by titrating the G protein against ligand-bound AT1R; 20 mM Hepes pH 7.5, 40 mM NaCl, 0.01% lauryl maltose neopentyl glycol; BS(PEG)9, high-mass MALDI-MS, normalised to β-galactosidase
[3] = target: thermostabilized turkey beta-1 adrenergic receptor (turkey) (UniProt P07700); assay: cross-linking; Kd by titrating the partner protein against isoprenaline-bound β1AR; 20 mM Hepes pH 7.5, 40 mM NaCl, 0.01% lauryl maltose neopentyl glycol; BS(PEG)9, high-mass MALDI-MS, normalised to β-galactosidase
[4] = target: thermostabilized turkey beta-1 adrenergic receptor (turkey) (UniProt P07700); assay: cross-linking; β1AR and partner with 1 or 25 µM s32212 at increasing concentrations of isoprenaline; BS(PEG)9, high-mass MALDI-MS
[5] = target: thermostabilized turkey beta-1 adrenergic receptor (turkey) (UniProt P07700); assay: cross-linking; apo β1AR with Gαi or β-arrestin-1 at equimolar concentration; BS(PEG)9, high-mass MALDI-MS; percent complex by normalisation with β-Gal
[6] = target: thermostabilized turkey beta-1 adrenergic receptor (turkey) (UniProt P07700); assay: cross-linking; carvedilol-bound β1AR with Gαi or β-arrestin-1 at equimolar concentration; BS(PEG)9, high-mass MALDI-MS; percent complex by normalisation with β-Gal
[7] = target: thermostabilized turkey beta-1 adrenergic receptor (turkey) (UniProt P07700); assay: cross-linking; isoprenaline-bound β1AR with Gαi or β-arrestin-1 at equimolar concentration; BS(PEG)9, high-mass MALDI-MS; percent complex by normalisation with β-Gal
[8] = target: mouse angiotensin II type 1 receptor F117W Δ324 with a C-terminal 1D4 tag (mouse); assay: cross-linking + other: high-mass MALDI-MS; ligand-free (apo) GPCR, 5 µM, mixed with partner protein at various concentrations, 1 h at room temperature, BS(PEG)9 cross-linking, β-Gal as internal standard; 20 mM Hepes pH 7.5, 40 mM NaCl, 0.01% LMNG; Ka = 1/Kd
[9] = target: angiotensin II-bound mouse angiotensin II type 1 receptor F117W Δ324 (mouse | human); assay: cross-linking + other: high-mass MALDI-MS; angiotensin II-bound AT1R (angII-AT1R), 5 µM, mixed with partner protein at various concentrations, 1 h at room temperature, BS(PEG)9 cross-linking, 1.0 µM β-Gal as internal standard; 20 mM Hepes pH 7.5, 40 mM NaCl, 0.01% LMNG; Ka = 1/Kd

full-length wild-type β-arrestin-1, sequence (P49407 whole entry): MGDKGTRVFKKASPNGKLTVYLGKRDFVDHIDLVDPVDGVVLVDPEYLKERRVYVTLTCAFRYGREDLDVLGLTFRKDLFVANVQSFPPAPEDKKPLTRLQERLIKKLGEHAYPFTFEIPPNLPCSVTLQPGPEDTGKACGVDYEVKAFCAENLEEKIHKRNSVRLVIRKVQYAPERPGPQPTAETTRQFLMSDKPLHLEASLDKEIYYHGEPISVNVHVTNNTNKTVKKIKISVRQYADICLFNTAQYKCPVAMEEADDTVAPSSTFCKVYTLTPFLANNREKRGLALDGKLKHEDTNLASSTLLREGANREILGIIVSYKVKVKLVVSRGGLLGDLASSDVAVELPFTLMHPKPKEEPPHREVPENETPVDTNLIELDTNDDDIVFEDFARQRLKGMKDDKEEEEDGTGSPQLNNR
thermostabilized turkey beta-1 adrenergic receptor (turkey), sequence (P07700 whole entry): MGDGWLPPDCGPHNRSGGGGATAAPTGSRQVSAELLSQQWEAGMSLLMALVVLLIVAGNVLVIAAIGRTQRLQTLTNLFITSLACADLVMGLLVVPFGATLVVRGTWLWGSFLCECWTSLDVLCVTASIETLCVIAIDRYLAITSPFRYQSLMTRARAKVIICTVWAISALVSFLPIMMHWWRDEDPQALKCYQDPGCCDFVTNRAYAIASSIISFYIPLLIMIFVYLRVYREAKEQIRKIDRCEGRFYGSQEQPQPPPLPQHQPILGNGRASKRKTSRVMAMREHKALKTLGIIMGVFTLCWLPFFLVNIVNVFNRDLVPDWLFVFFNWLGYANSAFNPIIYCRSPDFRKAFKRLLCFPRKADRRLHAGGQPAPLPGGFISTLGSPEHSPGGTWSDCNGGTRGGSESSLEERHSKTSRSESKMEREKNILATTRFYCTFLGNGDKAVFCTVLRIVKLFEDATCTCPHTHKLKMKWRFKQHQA

- Kd [1]: 250 nM
- binding strength relative to mGq [2]: 2 fold
- Kd [3]: 250 nM
Substance: mini-Gα protein mGo (domain or fragment)

- complex formation recovered by raising isoprenaline (with s32212) [4]: 80%
- Kd [3]: 350 nM
Substance: mini-Gα protein mGs (from UniProt P63092 87-394) (domain or fragment)

- complex formation [5]: 60%
- complex formation [6]: 92%
- complex formation [7]: 60%
Substance: full-length wild-type Gαi (from UniProt P63096 1-354) (natural protein)

- complex formation [5]: 32%
- complex formation [6]: 88%
- complex formation [7]: 32%
Substance: full-length wild-type β-arrestin-1 (from UniProt P49407 1-418) (natural protein)

- Kd [3]: 1620 nM
Substance: mini-Gα protein mGi (domain or fragment)

- Ka [8]: 270000 M⁻¹
- Ka [9]: 1.02e+06 M⁻¹
Substance: mini-Go (domain or fragment)

- Kd [3]: 1240 nM
Substance: mini-Gα protein mGq (domain or fragment)

- Kd [1]: 280 nM
- Kd [3]: 230 nM
Substance: mGo truncated by its last five residues (domain or fragment)
